Measurements published in article PMC10786891, “Massively parallel profiling of RNA-targeting CRISPR-Cas13d”.
Where a chain is given by its changes, count along the chain named. Numbers in names are those of the source.

Target: T1, EsCas13d, nuclease-dead (Eubacterium siraeum, UniProt B0MS50, R295A;H300A;R849A;H854A)
T1 sequence: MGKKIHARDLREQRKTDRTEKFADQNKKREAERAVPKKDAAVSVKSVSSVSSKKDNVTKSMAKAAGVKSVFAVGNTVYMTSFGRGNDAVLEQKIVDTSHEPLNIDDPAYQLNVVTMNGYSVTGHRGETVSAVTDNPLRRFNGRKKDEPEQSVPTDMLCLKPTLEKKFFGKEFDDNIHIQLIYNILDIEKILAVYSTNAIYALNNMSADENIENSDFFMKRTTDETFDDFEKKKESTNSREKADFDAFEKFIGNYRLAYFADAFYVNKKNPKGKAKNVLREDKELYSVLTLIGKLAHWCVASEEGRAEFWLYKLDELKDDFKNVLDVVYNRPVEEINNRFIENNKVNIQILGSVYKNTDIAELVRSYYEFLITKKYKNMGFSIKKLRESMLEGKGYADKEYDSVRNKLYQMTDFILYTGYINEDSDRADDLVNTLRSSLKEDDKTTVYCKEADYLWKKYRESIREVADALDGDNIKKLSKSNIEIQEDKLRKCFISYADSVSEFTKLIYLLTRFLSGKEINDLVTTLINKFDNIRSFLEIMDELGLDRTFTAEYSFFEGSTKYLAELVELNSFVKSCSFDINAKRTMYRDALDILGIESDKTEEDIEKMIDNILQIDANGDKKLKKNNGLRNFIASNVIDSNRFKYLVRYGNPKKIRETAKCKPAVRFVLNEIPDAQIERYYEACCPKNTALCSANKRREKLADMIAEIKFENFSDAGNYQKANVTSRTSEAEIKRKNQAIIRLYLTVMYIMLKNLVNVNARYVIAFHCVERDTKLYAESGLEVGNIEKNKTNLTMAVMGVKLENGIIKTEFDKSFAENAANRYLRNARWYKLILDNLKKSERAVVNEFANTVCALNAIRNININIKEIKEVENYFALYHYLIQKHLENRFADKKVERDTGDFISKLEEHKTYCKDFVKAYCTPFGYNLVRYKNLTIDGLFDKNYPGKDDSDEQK
Test: crRNA (strand 1, pre-loaded); Mg2+; 40 mM Tris-HCl pH 7.5, 150 mM NaCl, 6 mM MgCl2, 1 mM DTT, 0.1% Tween-20, 0.2 mg/ml BSA; 25 C; 10 min per concentration, then washed
Conditions: tags: His6-TwinStrep-SUMO cleaved; N-terminal SNAP kept (SNAP-Surface 488); label: 3' end held by stalled T7 RNA polymerase

B1: target 1 MT 5'PFS GGA 3'PFS UUA (mixed)
RNA 1: CACCCGUGCAAAAAUGCAGGGGUCUAAAACUGAGCGGAUAACCUCUCUAUGG
RNA 2: GGGAAUGGAUCCACAUCUACGAAUUCGGACCAUAGAGAGGUUAUCCGCUCAUUAAGAUCGGAAGAGCACACGU
- Kd: 14.2 ± 3.1 nM

B2: target 1 MT 5'PFS AUU 3'PFS AAG (mixed)
RNA 1: B1 RNA 1
RNA 2: B1 RNA 2 with G27A, G28U, A29U, U52A, U53A, A54G
- Kd: 95 ± 40 nM

B3: target 1 MT 5'PFS GGG 3'PFS GGU (mixed)
RNA 1: B1 RNA 1
RNA 2: B1 RNA 2 with A29G, U52G, U53G, A54U
- Kd: 61 ± 14 nM

B4: target 1 MT 5'PFS CAC 3'PFS AAC (mixed)
RNA 1: B1 RNA 1
RNA 2: B1 RNA 2 with G27C, G28A, A29C, U52A, U53A, A54C
- Kd: ~34.5 nM

B5: target 1 MT 5'PFS GAC 3'PFS AAU (mixed)
RNA 1: B1 RNA 1
RNA 2: B1 RNA 2 with G28A, A29C, U52A, U53A, A54U
- Kd: ~50 nM

B6: target 1 MT 5'PFS CAC 3'PFS AAG (mixed)
RNA 1: B1 RNA 1
RNA 2: B1 RNA 2 with G27C, G28A, A29C, U52A, U53A, A54G
- Kd: 42 ± 17 nM

B7: target 1 MT 5'PFS GGG 3'PFS AGC (mixed)
RNA 1: B1 RNA 1
RNA 2: B1 RNA 2 with A29G, U52A, U53G, A54C
- Kd: 20.5 ± 4.5 nM

B8: target 1 MT 5'PFS UCG 3'PFS UAU (mixed)
RNA 1: B1 RNA 1
RNA 2: B1 RNA 2 with G27U, G28C, A29G, U53A, A54U
- Kd: 27 ± 5.5 nM

B9: target 1 U3C,C6U (mixed)
RNA 1: B1 RNA 1
RNA 2: B1 RNA 2 with G28U, C46U, U49C, U52C, U53C, A54G
- Kd: 14.4 ± 1.9 nM

B10: target 1 MT 5'PFS AGA 3'PFS AGA (mixed)
RNA 1: B1 RNA 1
RNA 2: B1 RNA 2 with G27A, U52A, U53G
- Kd: 70.5 ± 31.5 nM

B11: target 1 MT 5'PFS GUA 3'PFS AAC (mixed)
RNA 1: B1 RNA 1
RNA 2: B1 RNA 2 with G28U, U52A, U53A, A54C
- Kd: 20.4 ± 1.55 nM

B12: target 1 MT 5'PFS UGU 3'PFS ACU (mixed)
RNA 1: B1 RNA 1
RNA 2: B1 RNA 2 with G27U, A29U, U52A, U53C, A54U
- Kd: 34.5 ± 13.5 nM

B13: target 1 MT 5'PFS UGU 3'PFS ACG (mixed)
RNA 1: B1 RNA 1
RNA 2: B1 RNA 2 with G27U, A29U, U52A, U53C, A54G
- Kd: ~80 nM

B14: target 1 MT 5'PFS UCC 3'PFS CAG (mixed)
RNA 1: B1 RNA 1
RNA 2: B1 RNA 2 with G27U, G28C, A29C, U52C, U53A, A54G
- Kd: ~60 nM

B15: target 1 MT 5'PFS UCG 3'PFS UAC (mixed)
RNA 1: B1 RNA 1
RNA 2: B1 RNA 2 with G27U, G28C, A29G, U53A, A54C
- Kd: 22.5 ± 9 nM

B16: target 1 MT 5'PFS UCG 3'PFS CUU (mixed)
RNA 1: B1 RNA 1
RNA 2: B1 RNA 2 with G27U, G28C, A29G, U52C, A54U
- Kd: 24.5 ± 6.5 nM

B17: target 1 MT 5'PFS UGU 3'PFS ACA (mixed)
RNA 1: B1 RNA 1
RNA 2: B1 RNA 2 with G27U, A29U, U52A, U53C
- Kd: 71 ± 18 nM

B18: target 1 MT 5'PFS GUA 3'PFS AAG (mixed)
RNA 1: B1 RNA 1
RNA 2: B1 RNA 2 with G28U, U52A, U53A, A54G
- Kd: 19.1 ± 1.2 nM

B19: target 1 MT 5'PFS ACA 3'PFS UAG (mixed)
RNA 1: B1 RNA 1
RNA 2: B1 RNA 2 with G27A, G28C, U53A, A54G
- Kd: 11.2 ± 4.95 nM

B20: target 1 MT 5'PFS AGA 3'PFS AGU (mixed)
RNA 1: B1 RNA 1
RNA 2: B1 RNA 2 with G27A, U52A, U53G, A54U
- Kd: 44.5 ± 18 nM

B21: target 1 MT 5'PFS GAA 3'PFS AGU (mixed)
RNA 1: B1 RNA 1
RNA 2: B1 RNA 2 with G28A, U52A, U53G, A54U
- Kd: 43 ± 11.5 nM

B22: target 1 MT 5'PFS GGA 3'PFS UUU (mixed)
RNA 1: B1 RNA 1
RNA 2: B1 RNA 2 with A54U
- Kd: 13.4 ± 4.15 nM

B23: target 1 MT 5'PFS GGG 3'PFS GGG (mixed)
RNA 1: B1 RNA 1
RNA 2: B1 RNA 2 with A29G, U52G, U53G, A54G
- Kd: 65.5 ± 14 nM

B24: target 1 MT 5'PFS ACU 3'PFS UUU (mixed)
RNA 1: B1 RNA 1
RNA 2: B1 RNA 2 with G27A, G28C, A29U, A54U
- Kd: 39.5 ± 15.5 nM

B25: target 1 MT 5'PFS UCC 3'PFS CAA (mixed)
RNA 1: B1 RNA 1
RNA 2: B1 RNA 2 with G27U, G28C, A29C, U52C, U53A
- Kd: ~18 nM

B26: target 1 MT 5'PFS AGA 3'PFS AGC (mixed)
RNA 1: B1 RNA 1
RNA 2: B1 RNA 2 with G27A, U52A, U53G, A54C
- Kd: ~42.5 nM

B27: target 1 insC 3' of 13,insG 3' of 3 (mixed)
RNA 1: B1 RNA 1
RNA 2: GGGAAUGGAUCCACAUCUACGAAUUCGUACCAUAGAGAGCGUUAUCCGCUGCACCGAGAUCGGAAGAGCACACGU
- Kd: 5.58 ± 0.3 nM

B28: target 1 MT 5'PFS ACU 3'PFS CCG (mixed)
RNA 1: B1 RNA 1
RNA 2: B1 RNA 2 with G27A, G28C, A29U, U52C, U53C, A54G
- Kd: ~115 nM

B29: target 1 MT 5'PFS GAC 3'PFS AAG (mixed)
RNA 1: B1 RNA 1
RNA 2: B1 RNA 2 with G28A, A29C, U52A, U53A, A54G
- Kd: 50.5 ± 22.5 nM

B30: target 1 MT 5'PFS GGG 3'PFS AGA (mixed)
RNA 1: B1 RNA 1
RNA 2: B1 RNA 2 with A29G, U52A, U53G
- Kd: 23.9 ± 3.1 nM

B31: target 1 MT 5'PFS GGG 3'PFS AGU (mixed)
RNA 1: B1 RNA 1
RNA 2: B1 RNA 2 with A29G, U52A, U53G, A54U
- Kd: 30.4 ± 4.65 nM

B32: target 1 MT 5'PFS GGG 3'PFS GGC (mixed)
RNA 1: B1 RNA 1
RNA 2: B1 RNA 2 with A29G, U52G, U53G, A54C
- Kd: 26.5 ± 5 nM

B33: target 1 MT 5'PFS CUU 3'PFS CGC (mixed)
RNA 1: B1 RNA 1
RNA 2: B1 RNA 2 with G27C, G28U, A29U, U52C, U53G, A54C
- Kd: 18 ± 6 nM

B34: target 1 MT 5'PFS UCG 3'PFS UAA (mixed)
RNA 1: B1 RNA 1
RNA 2: B1 RNA 2 with G27U, G28C, A29G, U53A
- Kd: 86.5 ± 38.5 nM

B35: target 1 MT 5'PFS GCC 3'PFS CCU (mixed)
RNA 1: B1 RNA 1
RNA 2: B1 RNA 2 with G28C, A29C, U52C, U53C, A54U
- Kd: 8.9 ± 3 nM

B36: target 1 MT 5'PFS UCC 3'PFS CAU (mixed)
RNA 1: B1 RNA 1
RNA 2: B1 RNA 2 with G27U, G28C, A29C, U52C, U53A, A54U
- Kd: 13 ± 5.5 nM

B37: target 1 MT 5'PFS CUA 3'PFS CUC (mixed)
RNA 1: B1 RNA 1
RNA 2: B1 RNA 2 with G27C, G28U, U52C, A54C
- Kd: 7.15 ± 3.05 nM

B38: target 1 MT 5'PFS GGG 3'PFS AGG (mixed)
RNA 1: B1 RNA 1
RNA 2: B1 RNA 2 with A29G, U52A, U53G, A54G
- Kd: 50.5 ± 8.5 nM

B39: target 1 MT 5'PFS UAG 3'PFS UGA (mixed)
RNA 1: B1 RNA 1
RNA 2: B1 RNA 2 with G27U, G28A, A29G, U53G
- Kd: 34.5 ± 8 nM

B40: target 1 G12A,A20C (mixed)
RNA 1: B1 RNA 1
RNA 2: B1 RNA 2 with G28U, A32C, G40A, U52C, U53C, A54G
- Kd: 42 ± 9 nM
